This note sets out measurements from publication PMC5371818, “Suppression of FOXM1 Transcriptional Activities via a Single-Stranded DNA Aptamer Generated by SELEX”.

The target in data set [1] is T1, His-FOXM1 full-length (UniProt Q08050 1-763).
T1 sequence: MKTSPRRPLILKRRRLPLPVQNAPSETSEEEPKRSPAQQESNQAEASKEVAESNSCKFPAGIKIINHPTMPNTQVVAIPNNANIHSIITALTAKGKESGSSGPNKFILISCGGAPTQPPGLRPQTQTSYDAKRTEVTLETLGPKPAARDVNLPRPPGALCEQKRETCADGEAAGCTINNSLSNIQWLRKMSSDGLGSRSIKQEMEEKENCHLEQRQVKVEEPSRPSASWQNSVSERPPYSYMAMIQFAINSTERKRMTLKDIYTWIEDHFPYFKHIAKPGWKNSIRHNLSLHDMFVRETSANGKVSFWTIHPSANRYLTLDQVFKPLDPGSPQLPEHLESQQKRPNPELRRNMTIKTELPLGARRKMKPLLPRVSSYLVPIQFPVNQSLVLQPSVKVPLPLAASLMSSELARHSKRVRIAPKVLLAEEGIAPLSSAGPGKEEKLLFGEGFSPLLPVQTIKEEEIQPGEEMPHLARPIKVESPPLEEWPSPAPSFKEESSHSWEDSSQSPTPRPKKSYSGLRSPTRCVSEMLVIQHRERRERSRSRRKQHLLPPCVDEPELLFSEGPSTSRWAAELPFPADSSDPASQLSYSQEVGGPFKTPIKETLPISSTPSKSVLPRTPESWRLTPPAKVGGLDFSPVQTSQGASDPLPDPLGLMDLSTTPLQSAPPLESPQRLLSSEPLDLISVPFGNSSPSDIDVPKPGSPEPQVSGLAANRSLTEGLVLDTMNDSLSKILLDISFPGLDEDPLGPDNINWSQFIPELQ
Nature of the data set: fluorescence polarization; EMSA and FP: 20 mM Tris-Cl, 50 mM KCl, 10% glycerol, 0.5 mM EDTA, 0.2 mM DTT, pH 7.6, 30 min on ice; EMSA 50 nM probe, FP 10 nM probe (50 nM in Fig. 1D legend). The settings on record: protein: recombinant, tags: C-terminal His6 (encoded by reverse primer S6). A general note: In fluorescence polarisation assays a small probe gives low polarisation when free and higher when bound to something large.

In data set [2] the target is T2, GST-FOXM1 DBD (UniProt Q08050 225-355).
T2 sequence: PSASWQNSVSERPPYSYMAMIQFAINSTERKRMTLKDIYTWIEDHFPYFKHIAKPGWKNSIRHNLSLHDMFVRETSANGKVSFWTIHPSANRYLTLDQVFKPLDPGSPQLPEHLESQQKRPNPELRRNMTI
The data set is described as above. The settings on record: protein: recombinant, tags: N-terminal GST (pGEX-4T-1).

Data set [3] has as its target T2, GST-FOXM1 DBD. Nature of the data set: EMSA; EMSA and FP: 20 mM Tris-Cl, 50 mM KCl, 10% glycerol, 0.5 mM EDTA, 0.2 mM DTT, pH 7.6, 30 min on ice; EMSA 50 nM probe, FP 10 nM probe (50 nM in Fig. 1D legend). The settings on record: protein: recombinant; tags: N-terminal GST (pGEX-4T-1); label: 5'-ROX. For orientation: Mobility shift assays separate free from complexed probe on a gel.

Setting [4] is: label: 5'-ROX (hot) or none (cold).
Where [5] appears, read: label: 5'-FAM on forward strand (hot) or none (cold), blunt.

The term Kd denotes the equilibrium constant for the complex coming apart. For TCACTTCACACCGCATCTCTACGTCCGGTTGCGCTTTCCTTT (ssDNA) [FOXM1 Apt (C1)], the Kd in data set [1] (setting [4]) amounted to 172 ± 26.6 nM; in data set [2] (setting [4]), 64.8 ± 25.8 nM. Turning to TCACTTCACACCGCATCTCTACGTCCGGTTGCGCTTTCCTTT (ssDNA, phosphorothioate internucleotide linkages) [M-FOXM1 Apt], the Kd in data set [1] amounted to 63.9 ± 6.6 nM.

B1: FOXM1 dsDNA probe (dsDNA)
DNA 1: TTTGTTTATTTGTTTGTTTATTTG
DNA 2: CAAATAAACAAACAAATAAACAAA
With B1, the Kd in data set [1] (setting [5]) is 214 ± 249 nM; in data set [2] (setting [5]) it was 543 ± 148 nM. For TCACTTAAAAAAAAAAAACTCATGAAAAAAAAAAAATCCTTT (ssDNA) [Control Apt], the binding result in data set [3] is “no binding”.
